Measured values: patent US20260092121A1 (TALEM THERAPEUTICS, published 2026)

B1: anti-CD3 Fab clone 7-G01 (Fab, V domains shown)
VH: QVQLVQSGPEVKKPGASVNISCKTSGYTFRNYYVHWVRQAPGQGFEYMGRVNPNSGNARYAQKFQGRVAMTSDTSTSTAYMELSSLRSEDTAVYYCAREPPATVAYYYGMDVWGQGTTVTVSS
VL: NFMLTQPHSVSESPGKTVTISCTGSSGSIASNYVHWYQQRPGSAPTTVIYEDNQRPSGVPDRFSGSIDSSSNSASLTISGLKTEDEADYYCRSYDSSNRNWVFGGGTKLTVL
notes: Fab, HEK293
B2: anti-CD3 Fab clone 3-A05 (Fab, V domains shown)
VH: QVQLLQSAAEVKKPGASVKVPCKASGYTFTGHYMHWVRQAPGQGLEWMGIINPRGGSTSYAQKFQGRVTMTRDTSTSTVYMELSSLRSEDTAVYYCARESIAAAGPYFDYWGQGTLVTVSS
VL: QSALTQPHSVSESPGKTVTISCTRTSGRIGSNYVQWYQQRPGSAPTVVIYEDNQRPSGVPDRFSGSIDSSTNSASLTISRLKTEDEADYYCQSYDSGVVVVFGGGTKLTV
notes: Fab, HEK293; not the anti-TrkB clone 3A05
B3: anti-CD3 Fab clone 5-C03 (Fab, V domains shown)
VH: QVQLQQSGPGLVKPSQTLSLTCAISGDSVSSNSAAWNWIRQSPSRGLEWLGRTYYRSKWYNDYAVSVKSRITINPDTSKNQFSLQLNSVTPEDTAVYYCATWGMDVWGQGTTVTVSS
VL: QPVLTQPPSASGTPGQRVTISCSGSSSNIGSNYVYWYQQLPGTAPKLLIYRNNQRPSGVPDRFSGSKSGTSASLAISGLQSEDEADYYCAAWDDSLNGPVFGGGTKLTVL
notes: Fab, HEK293
B4: anti-CD3 Fab clone 2-C02 (Fab, V domains shown)
VH: QVQLQQSGPGLVKPSQTLSLTCAISGDSVSSNSAAWNWIRQSPSRGLEWLGRTYYRSKWYNDYAVSVKSRITINPDTSKNQFSLHLNSVTPEDTAVYYCATWGMDVWGQGTTVTVSS
VL: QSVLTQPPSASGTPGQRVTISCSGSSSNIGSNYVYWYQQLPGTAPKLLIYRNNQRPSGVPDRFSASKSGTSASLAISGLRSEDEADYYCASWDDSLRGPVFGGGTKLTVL
notes: Fab, HEK293
B5: anti-CD3 Fab clone 6-C04 (Fab, V domains shown)
VH: QVQLQQSGPGLVKPSQTLSLTCAISGDSVSSNSAAWNWIRQSPSRGLEWLGRTYYRSKWYNDYAVSVKSRITINPDTSKNQFSLHLNSVTPEDTAVYYCATWGMDVWGQGTMVTVSS
VL: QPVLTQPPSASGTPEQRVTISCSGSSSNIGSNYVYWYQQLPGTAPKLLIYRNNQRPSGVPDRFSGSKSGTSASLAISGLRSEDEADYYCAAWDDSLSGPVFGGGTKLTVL
notes: Fab, HEK293
B6: anti-CD3 Fab clone 4-G04 (Fab, V domains shown)
VH: QVNLRESGGGVVQPGGSLRLSCAASGFTFRRYGMNWIRQAPGKGLEWVSSISSSSSYIYYADSVKGRFTISRDNAKNSLYLQMNSLRAEDTAMYYCVRDGRFINGLDVWGQGTLVTVSS
VL: NFMLTQPHSVSESPGRTVTISCTRSSGSIASNYVQWYQQRPGSSPTTVIYDDKKRPSGVPDRFSGSIDSSTNSASLTISGLKTEDEADYYCQSYDSSNHWVFGGGTKVTVL
notes: Fab, HEK293
B7: anti-CD3 Fab clone 1-G11 (Fab, V domains shown)
VH: QVQLVQSGAEVKKPGASVKVSCKASGYTFTSYGISWVRQAPGQGLEWMGWISAYNGNTNYAQKLQGRVTMTTDTPTSTAYMEVRSLRSDDTAVYYCAREVNYGLDVWGQGTLVTVSS
VL: QPVLTQPPSASGTPGQRVTISCSGSSSNIGSKYVYWYQQLPGTAPKLLIYRNNQRPSGVPDRFSGSKSGTSASLVISGLRSEDEADYHCAAWDDSLSGRVFGGGTKLTVL
notes: Fab, HEK293
B8: anti-CD3 Fab clone 7-C11 (Fab, V domains shown)
VH: EVQLVESGGGLVQPGGSLRLSCAASGFTSNTYAMSWVRQAPGKGLEWVSTISGSGSSTNYADSVKGRFTISRDSSKNTLYLQMNSLRAEDTAVYYCARIERYSYGIDYWGQGTLVTVSS
VL: NFMLTQPHSVSESPGKTVTISCTRNTGGIAANYVQWYHQRPGSAPTTVIYEDKQRPSGVPGRFSGSIDGSSNSASLTISGLQAEDEGDYYCHSSDNNNQVFGGGTKLTVL
notes: Fab, HEK293
B9: anti-CD3 Fab clone 3-B05 (Fab, V domains shown)
VH: QVQLLQSAGGVVQPGRSLRLSCAASGFTFSTYAVHWVRQAPGKGLEWVAAISYDGAGKYYGDSVRGRFTISRDDSKNTVYLQMNSLRAEDTAVYYCAGEHYTLTDEEFDFWGQGTLVTVSS
VL: QSVLTQPPSVSAAPGQKVTISCSGSASNIGNNYVSWYQQLPGTAPKLLIYDNNQRPSGIPDRFSGSKSGTSATLGITGLQTGDEADYYCGTWDTSLRGVVFGGGTKVTVL
notes: Fab, HEK293
B10: anti-CD3 Fab clone 8-B12 (Fab, V domains shown)
VH: HVQLVQSGGGSAQHGGSLRLSCAASGFTFNNSYMNWVRQAPGKRLEWISTISRGGNSVYYADSVKGRFTVSRDNTKNLTFLQMDSLRDEDTAVYYCAKGGDYLYWGQGTLVTVSS
VL: NFMLTQPHSVSESPGKTVTLSCTRSSGSIASKYVQWYQQRPGSAPTIVIFDDDRRPSGVPDRFSGSIDRSSNSASLTIFGMKTEDEADYYCQSYDSSNWVFGGGTKLTVL
notes: Fab, HEK293
B11: anti-CD3 Fab clone 4-A01 (Fab, V domains shown)
VH: QVQLVQSEGGLVQPGGSLRLSCAASGFSFGSSAMSWVRQAPGRGLEWVSGISHSGSTTYYADSVKGRFTISRDNSKNTLYLQMNSLRVEDTAVYYCAKIGAYGYYFHYWGQGTLVTVSS
VL: NFMLTQPHSVSESPGKTVTISCTGSGGNIGNNYVQWYQQRPDSPPSTVIYDDSQRPSGVPDRFSGSIDRSSNSASLTISGLRTEDEADYYCQSSDSGRVVFGGGTKLTV
notes: Fab, HEK293
B12: anti-CD3 Fab clone 4-G03 (Fab, V domains shown)
VH: QVQLLQSAGGLVQPGGSLRLSCAASGYSFGSSAMSWVRQAPGRGLEWVSGISHSGSTTYYADSVKGRFTISRDNSKNTLYLQMNSLRAEDTAVYYCAKIGAYGYYFHYWGQGTLVTVSS
VL: NFMLTQPHSVSESPGKTVTISCTGNGGNIASNYVQWYQHRPDSAPIAVIYDDSQRPSGIPDRFSGSIDRSSNSASLTISGLRPEDEADYYCQSSDNANVVFGGGTKLTVL
notes: Fab, HEK293
B13: anti-CD3 Fab clone 7-E01 (Fab, V domains shown)
VH: QVQLQQSGGGLVQPGGSLRLSCAASGFSFGSSAMSWVRQAPGRGLEWVSGISHSGSTTYYADSVKGRFTISRDNSKNTLYLQMNSLRVEDTAVYYCAKIGAYGYYFHYWGQGTLVTVSS
VL: NFMLTQPHSVSESPGRTVTISCTRSSGSIASNYVQWYQQRPGSAPTTVIYEDNQRLSGVPDRFSGSIDRSSNSASLTISGLKTEDEADYYCQSSDDSNHLVFGGGTKLTVL
notes: Fab, HEK293
B14: anti-CD3 Fab clone 3-C04 (Fab, V domains shown)
VH: EVQLVESGGGLVQPGGSLRLSCAASGFTFNNFYMNWVRQAPGKGLEWISTISRGGNSVYYADSVKGRFTVSRDNAKNSLFLQMDSLRDEDTAVYYCVRGGDFLYWGQGTLVTVSS
VL: NFMLTQPHSVSESPGKTVTISCTRSTGSIAGNYVQWYQQRPGSSPTTVILEDKQRPSGVPDRFSGSIDTSSNSATLTISGLKTEDEADYYCQSYDSGNVIFGGGTKLTVL
notes: Fab, HEK293
B15: anti-CD3 Fab clone 1-C12 (Fab, V domains shown)
VH: QVQLQQSGPGLVKPSQTLSLTCAISGDSVSSNSAAWNWIRQSPSRGLEWLGRTYYRSKWYNDYAVSVKSRITINPDTSKNQFSLQLNSVTPEDTAVYYCARGITGTGYGMDVWGQGTLVTVSS
VL: QSVLTQPPSASGTPGQRVTISCSGSSSNIGRNHVYWYQQLPGTAPKLLIYNNDQRPSGVPDRFSGSKSGTSGSLTISGLQAEDEADYYCAAWDDSLSSGVFGGGTKVTVL
notes: Fab, HEK293
B16: anti-CD3 Fab clone 3-B06 (Fab, V domains shown)
VH: QVQLQQSGAEVKKPGASLKVSCKASGYTFTRYGFSWVRQAPGQGLEWMGWISAYNGNTNYAQKFQGRVTMTTDTSTSTAYMEMRSLRSDDTAVYYCARDRGYCSGGSCPGIDAFDIWGQGTMVTVSS
VL: SYVLTQPPSVSVAPGQTAKITCGGDNIENKYVHWYQQKPGQAPVVVVYDDSDRPSGIPDRFSGSNSGNTATLTITRVEAGDEADYYCQVWDSSSDRVVFGGGTKLTVL
notes: Fab, HEK293; not the anti-TrkB clone 3B06
B17: anti-CD3 Fab clone 3-A03 (Fab, V domains shown)
VH: EVQLVESGGGVVQPGRSLRLSCAASGFTFSSYAMHWVRQAPGKGLEWVSAISGSGGSTYYADSVKGRFTISRDNSKNTLYLQMNSLRAEDTAVYYCARDAHDYWGQGTLVTVSS
VL: QSVLTQPPSVSAAPGQKATISCSGGSSNLGNNYVSWYQQLPGTAPKLLIYDNNKRPSGIPDRFSGSKSGTSAALAITGLQTGDEADYYCGTWDSSLSAGVFGGGTKLTVL
notes: Fab, HEK293
B18: anti-CD3 Fab clone 3-B04 (Fab, V domains shown)
VH: QVQLVQSGGGLVQPGRSLRLSCAASGFTFDDFAMHWVRQAPGKGLEWVSGITWNSAATIYADSVKGRFTISRDNAKNSLYLQMNSLRPEDTAVYYCARDRGGPKDPFDIWGQGTMVTVSS
VL: QSVLTQPPSVSAAPGKKVTISCSGGSSNIGKNYVSWYQQLPGTAPKLLIYDNNKRPSGIPDRFSGSKSGTSATLGITGLQTGDEADYYCGTWDSSLSAVVFGGGTKLTVL
notes: Fab, HEK293; not the anti-TrkB clone 3B04
B19: anti-CD3 Fab clone 1-D03 (Fab, V domains shown)
VH: EVQLVQSGGGLVKPGRSLRLSCTASGFTFGDYAMSWFRQAPGKGLEWVGFIRSKAYGGTTEYAASVKGRFTISRDDSKSIAYLQMNSLKTEDTAVYYCTRVSDIYGMDVWGQGTTVTVSS
VL: QSVLTQPPSVSAAPGQKVTISCSGSSSNIGNNYVSWYQQLPGTAPKLLIYDNNKRPSGIPDRFSGSKSGTSATLGITGLQTGDEADYYCATWDDSLKAGVFGGGTKLTVL
notes: Fab, HEK293
B20: anti-CD3 Fab clone 7-A11 (Fab, V domains shown)
VH: EVQLVESGGGVVQPGRSLRLSCAASGFTFSSYGIHWVRQAPGKGLEWVSAISGSGGSTYYADSVKGRFTISRDNAKNSLYLQMNSLRDEDTAVYYCARERLIGMDVWGQGTTVTVSS
VL: NFMLTQPHSVAESPGKTVTISCTRSSGSIASNYVQWYQQRPGSAPTTVIYEDNQRPSGVPDRFSGSIDSSSNSASLTISGLKTEDEADYYCQSYDSGNPRVFGGGTKLTVL
notes: Fab, HEK293
B21: anti-CD3 Fab clone 7-B02 (Fab, V domains shown)
VH: QVQLVQSGGGLVQPGGSLRLSCAASGFTFSRYSMSWVRQAPGKGLEWVSSISGGGGSTYYADSVKGRFTISRDNSDGSVYLKMNSLAAGDTAAYYCVRGGWYRTPFEFWGRGTLVTVSS
VL: SYVLTQPPSVSASPGQTASITCSGHKLGDKYTSWYQQKPGQSPVLVIYQDNKRPSGIPERFSGSNSGNTATLTISGTQAMDEADYYCQAWDSSTNYVFGTGTKLTVL
notes: Fab, HEK293
B22: anti-CD3 Fab clone 5-A05 (Fab, V domains shown)
VH: QVQLVQSGAEGKKPGSSVKVSCKASGGTFSSYAISWVRQAPGQGLEWMGGIIPIFGTANYAQKFQGRVTITADESTSTAYMELRSLRSDDTAVYYCARDAVVVADSGSMDVWGQGTTVTVSS
VL: not shown
notes: Fab, HEK293
B23: anti-CD3 Fab clone 1-H01 (Fab, V domains shown)
VH: QVQLVQSGAEVKKPGSSVKVSCKASGGTFSSYAISWVRQAPGQGLEWMGGIIPIFGTANYAQKFQGRVTITADESTSTAYMELSSLRSEDTAVYYCARDAVVVADSGSMDVWGQGTTVTVSS
VL: not shown
notes: Fab, HEK293
B24: anti-CD3 Fab clone 3-A06 (Fab, V domains shown)
VH: QVTLRESGGGLVKPGGSLRLSCSASGFTFRGFYMAWIRQAPGKGLEWVAYISSSGSAVYHADSVKGRFTVSRDNAKNLMYLEMNSLRADDTAVYYCARDGGTGGFDYWGQGTLVTVSS
VL: NFMLTQPHSVSESPGKTVAISCSRSSGSVASNYVQWYQQRPGNVPTTIIYQDNQRPSGVPDRFSGSIDKSSNSASLTISGLKTEDEADYYCQSYDGRRLIFGGGTKLTVL
notes: Fab, HEK293; not the anti-TrkB clone 3A06

Each binder was assayed against T1, biotinylated His-Avi-tagged human CD3δ/ε heterodimer (human, UniProt P07766 23-126; P04234 22-105, biotinylated) (assay: ELISA).
T1 construct: bought, expressed from HEK293; also called CD30/8; Biotin-CD3
T1 sequence (P07766 23-126, stated change not applied, chain 1 of 2): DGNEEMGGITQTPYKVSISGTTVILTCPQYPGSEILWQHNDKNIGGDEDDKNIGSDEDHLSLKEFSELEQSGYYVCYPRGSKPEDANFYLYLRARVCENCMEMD
T1 sequence (P04234 22-105, stated change not applied, chain 2 of 2): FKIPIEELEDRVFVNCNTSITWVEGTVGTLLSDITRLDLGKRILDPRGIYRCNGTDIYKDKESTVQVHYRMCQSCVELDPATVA
Work on B1 yielded an EC50 of 6.3 µg/mL. For B2, the EC50 was 11.4 µg/mL. Work on B3 yielded an EC50 of 23.9 µg/mL. Work on B4 yielded an EC50 of 23.9 µg/mL. Work on B5 yielded an EC50 of 47.7 µg/mL. Work on B6 yielded an EC50 of 73.8 µg/mL. For B7, the EC50 was 7.9 µg/mL. B8 was tested, and the EC50 was 52.3 µg/mL. B9 showed an EC50 of 7.2 µg/mL. B10 showed an EC50 of 38.2 µg/mL. For B11, the EC50 was 19.5 µg/mL. B12 showed an EC50 of 16.8 µg/mL. In the case of B13, the EC50 is reported as 7.9 µg/mL. B14 was tested, and the EC50 was 5.9 µg/mL. B15 gave an EC50 of 19.2 µg/mL. Binder B16 has an EC50 of 16.9 µg/mL. In the case of B17, the EC50 is reported as 5.2 µg/mL. Work on B18 yielded an EC50 of 10.9 µg/mL. With B19 the EC50 was 174 µg/mL. Binder B20 has an EC50 of 34.9 µg/mL. B21 was tested, and the EC50 was 12.1 µg/mL. Work on B22 yielded an EC50 of 4.3 µg/mL. With B23 the EC50 was 6.8 µg/mL. B24 showed an EC50 of 3.6 µg/mL.
